doi:10.1101/2020.09.29.319483

What was measured:
[1] = target: human glucagon-like peptide-1 receptor (human) (UniProt P43220)
[2] = target: human glucagon-like peptide-1 receptor (human) (UniProt P43220); assay: radioligand binding

UniProt P43220, sequence (P43220 24-463): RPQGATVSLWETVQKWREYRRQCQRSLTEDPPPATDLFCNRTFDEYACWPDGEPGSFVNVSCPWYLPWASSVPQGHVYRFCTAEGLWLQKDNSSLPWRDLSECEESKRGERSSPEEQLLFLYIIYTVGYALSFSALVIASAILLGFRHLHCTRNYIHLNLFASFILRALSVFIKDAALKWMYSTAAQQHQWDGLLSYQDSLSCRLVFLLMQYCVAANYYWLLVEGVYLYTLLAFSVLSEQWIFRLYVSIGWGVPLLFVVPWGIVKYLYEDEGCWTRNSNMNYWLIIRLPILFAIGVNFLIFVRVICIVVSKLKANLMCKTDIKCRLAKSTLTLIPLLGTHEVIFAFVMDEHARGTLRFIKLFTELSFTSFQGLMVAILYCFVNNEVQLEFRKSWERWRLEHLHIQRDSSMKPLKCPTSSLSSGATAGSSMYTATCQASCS

exenatide (from UniProt P26349 48-87) (peptide)
cAMP production, candidate selection (CS) CHO-GLP-1R cell line [1]: 0.11 nM | Ki [2]: 0.092 nM

liraglutide (peptide)
Ki [2]: 4.4 nM
